Here are results for one protein from PMC2330189 (Acta Crystallographica Section F: Structural Biology and …, 2007).

This data set concerns the molecule itself. Kind of data set: SEC. (In general: Size exclusion chromatography separates by hydrodynamic size, large species first.)

B1: 1,3-propanediol dehydrogenase from Klebsiella pneumoniae (enzyme, UniProt Q59477 1-387, looked up)
chain: MSYRMFDYLVPNVNFFGPNAISVVGERCQLLGGKKALLVTDKGLRAIKDGAVDKTLHYLREAGIEVAIFDGVEPNPKDTNVRDGLAVFRREQCDIIVTVGGGSPHDCGKGIGIAATHEGDLYQYAGIETLTNPLPPIVAVNTTAGTASEVTRHCVLTNTETKVKFVIVSWRNLPSVSINDPLLMIGKPAALTAATGMDALTHAVEAYISKDANPVTDAAAMQAIRLIARNLRQAVALGSNLQARENMAYASLLAGMAFNNANLGYVHAMAHQLGGLYDMPHGVANAVLLPHVARYNLIANPEKFADIAELMGENITGLSTLDAAEKAIAAITRLSMDIGIPQHLRDLGVKEADFPYMAEMALKDGNAFSNPRKGNEQEIAAIFRQAF
Consider B1, for which the “stoichiometry N” value was determined as 10.

A word on the stoichiometry N: it is the number of molecules, sites or subunits per partner or assembly.
